This series concerns the molecule itself. As to the kind of experiment: crystal structure; crystals grown at 4 °C by sitting-drop vapour diffusion, 10 mg/mL AAC(2′)-Ia with 10 mM acetyl-CoA and 10 mM antibiotic (tobramycin, netilmicin or amikacin); two chains (A and B) in the models.

B1: AAC(2′)-Ia from Providencia stuartii (enzyme)
chain: MGIEYRSLHTSQLTLSEKEALYDLLIEGFEGDFSHDDFAHTLGGMHVMAFDQQKLVGHVAIIQRHMALDNTPISVGYVEAMVVEQSYRRQGIGRQLMLQTNKIIASCYQLGLLSASDDGQKLYHSVGWQIWKGKLFELKQGSYIRSIEEEGGVMGWKADGEVDFTASLYCDFRGGDQW
notes: AAC(2′)-Ia, aminoglycoside 2′-N-acetyltransferase from Providencia stuartii; synthesized gene in pET-15b (NdeI/BamHI); Crystallised with acetyl-CoA or CoA and an aminoglycoside; also called aminoglycoside (2′)-N-acetyltransferase; source: E. coli BL21(DE3), purified (Ni-IDA-Sepharose, thrombin cleavage, benzamidine column, DEAE Sepharose); not shown: HIS-tag, N-terminal, cleaved
In the case of B1, the binding result was “binds”.

The record behind these values is paper PMC8172861, “Structural and phylogenetic analyses of resistance to next-generation aminoglycosides conferred by AAC(2′) enzymes” (Scientific Reports, 2021).
